Data set [1] concerns the target EGFR (on U87MG EGFR WT glioblastoma cells) (UniProt P00533). Put plainly: flow cytometry. The conditions noted are these: U87 EGFR WT cells, 1 nM-5 µM aptamer; no/low signal on EGFR-negative LN319 cells; 2'-fluoro pyrimidines (2'F-RNA); Flow cytometry: 300,000 cells detached with 0.2 M EDTA, 30 min with Cy5-aptamer; tissue: selection buffer, 2% BSA +/- 100 µg/mL yeast tRNA block, 1 h on ice ….

The target in data set [2] is integrin α5β1 (on U87MG α5+ cells) (UniProt P08648+P05556). The data set is described as follows: flow cytometry. Particulars: 2'-fluoro pyrimidines (2'F-RNA); Flow cytometry: 300,000 cells detached with 0.2 M EDTA, 30 min with Cy5-aptamer; tissue: selection buffer, 2% BSA +/- 100 µg/mL yeast tRNA block, 1 h on ice …; cited from earlier work.

In PMC9609998 one finds Kd data, which are given here for 2 sequences.

integrin α5β1 (on U87MG α5+ cells), sequence (P08648 42-1049, chain 1 of 2): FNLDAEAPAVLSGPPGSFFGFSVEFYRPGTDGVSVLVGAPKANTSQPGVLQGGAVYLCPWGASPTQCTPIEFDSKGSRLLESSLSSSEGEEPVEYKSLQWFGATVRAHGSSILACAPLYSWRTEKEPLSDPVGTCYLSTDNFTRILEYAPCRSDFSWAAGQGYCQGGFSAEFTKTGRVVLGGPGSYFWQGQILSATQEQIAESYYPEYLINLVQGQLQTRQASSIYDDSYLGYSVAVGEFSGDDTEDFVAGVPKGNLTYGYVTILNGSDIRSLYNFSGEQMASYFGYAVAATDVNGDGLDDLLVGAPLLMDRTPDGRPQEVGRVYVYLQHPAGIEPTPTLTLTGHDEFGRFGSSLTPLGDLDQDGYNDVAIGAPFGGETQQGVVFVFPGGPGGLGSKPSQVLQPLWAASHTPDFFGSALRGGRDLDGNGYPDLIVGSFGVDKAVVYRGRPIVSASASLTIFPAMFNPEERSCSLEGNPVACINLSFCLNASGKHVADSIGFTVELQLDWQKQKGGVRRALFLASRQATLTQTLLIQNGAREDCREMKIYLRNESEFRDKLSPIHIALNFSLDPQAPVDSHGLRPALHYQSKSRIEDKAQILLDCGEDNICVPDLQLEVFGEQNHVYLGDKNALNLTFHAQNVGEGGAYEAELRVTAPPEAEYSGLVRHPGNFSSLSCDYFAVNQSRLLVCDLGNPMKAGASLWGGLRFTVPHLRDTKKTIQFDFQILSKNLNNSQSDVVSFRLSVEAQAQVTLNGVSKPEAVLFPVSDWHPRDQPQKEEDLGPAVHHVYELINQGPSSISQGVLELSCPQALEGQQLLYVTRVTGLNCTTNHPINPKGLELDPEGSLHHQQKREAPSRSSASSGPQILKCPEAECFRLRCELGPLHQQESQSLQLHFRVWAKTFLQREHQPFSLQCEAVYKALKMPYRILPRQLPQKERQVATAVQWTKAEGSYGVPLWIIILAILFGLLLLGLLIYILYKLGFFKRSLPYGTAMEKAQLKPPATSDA
integrin α5β1 (on U87MG α5+ cells), sequence (P05556 21-798, chain 2 of 2): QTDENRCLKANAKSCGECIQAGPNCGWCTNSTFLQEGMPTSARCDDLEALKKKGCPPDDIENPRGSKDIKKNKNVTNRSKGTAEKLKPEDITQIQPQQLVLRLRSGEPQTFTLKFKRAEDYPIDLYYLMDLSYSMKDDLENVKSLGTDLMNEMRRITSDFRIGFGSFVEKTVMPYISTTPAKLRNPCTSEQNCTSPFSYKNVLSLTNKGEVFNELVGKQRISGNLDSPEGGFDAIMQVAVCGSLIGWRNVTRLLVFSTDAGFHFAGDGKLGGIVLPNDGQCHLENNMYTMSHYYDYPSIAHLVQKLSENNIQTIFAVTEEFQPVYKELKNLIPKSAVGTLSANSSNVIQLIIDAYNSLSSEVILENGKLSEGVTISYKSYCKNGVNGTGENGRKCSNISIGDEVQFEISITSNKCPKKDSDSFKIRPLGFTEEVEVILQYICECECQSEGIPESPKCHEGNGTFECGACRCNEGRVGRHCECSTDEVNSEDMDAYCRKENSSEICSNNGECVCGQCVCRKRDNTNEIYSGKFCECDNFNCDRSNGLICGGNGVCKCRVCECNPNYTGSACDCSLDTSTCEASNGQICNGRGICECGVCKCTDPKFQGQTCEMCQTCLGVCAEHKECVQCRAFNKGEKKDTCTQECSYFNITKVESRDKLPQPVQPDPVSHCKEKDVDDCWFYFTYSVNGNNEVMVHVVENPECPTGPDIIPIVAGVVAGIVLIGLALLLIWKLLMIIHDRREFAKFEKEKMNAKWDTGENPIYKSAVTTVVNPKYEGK

In the case of “GGACGGAUUUAAUCGCCGUAGAAAAGCAUGUCAAAGCCGGAACCGUCC [E07-Cy5]”, in data set [1], the dissociation constant (Kd) was found to be 209 nM.

Take “GGUUACCAGCCUUCACUGCGGACGGACAGAGAGUGCAACCUGCCGUGCCGCACCACGGUCGGUCACAC [H02-Cy5]”: the Kd in data set [2] was 278 nM.
